In this assay the target is C1q as present in the human serum or plasma of the hemolytic assays (human) (UniProt P02745). The experiment in a line: cell-based or functional assay.

No end group written: not given here. dPEG24 = 24 PEG moieties

Chain of UniProt P02745 (P02745 23-245 limits assumed, chain 1 of 3): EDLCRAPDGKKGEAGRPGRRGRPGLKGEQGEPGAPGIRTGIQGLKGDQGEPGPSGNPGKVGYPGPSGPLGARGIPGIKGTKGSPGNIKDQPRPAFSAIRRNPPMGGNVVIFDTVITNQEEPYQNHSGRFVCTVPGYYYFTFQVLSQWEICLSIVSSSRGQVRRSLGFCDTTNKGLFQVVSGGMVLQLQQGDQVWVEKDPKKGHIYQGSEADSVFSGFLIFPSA
Chain of UniProt P02745 (P02746 28-253 limits assumed, chain 2 of 3, further chain): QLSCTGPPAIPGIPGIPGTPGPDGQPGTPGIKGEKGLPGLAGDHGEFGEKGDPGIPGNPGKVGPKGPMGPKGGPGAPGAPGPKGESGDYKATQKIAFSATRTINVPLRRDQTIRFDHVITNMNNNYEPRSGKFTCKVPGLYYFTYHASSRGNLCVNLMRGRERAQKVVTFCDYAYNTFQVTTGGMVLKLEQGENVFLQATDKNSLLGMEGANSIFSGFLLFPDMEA
Chain of UniProt P02745 (P02747 29-245 limits assumed, chain 3 of 3, further chain): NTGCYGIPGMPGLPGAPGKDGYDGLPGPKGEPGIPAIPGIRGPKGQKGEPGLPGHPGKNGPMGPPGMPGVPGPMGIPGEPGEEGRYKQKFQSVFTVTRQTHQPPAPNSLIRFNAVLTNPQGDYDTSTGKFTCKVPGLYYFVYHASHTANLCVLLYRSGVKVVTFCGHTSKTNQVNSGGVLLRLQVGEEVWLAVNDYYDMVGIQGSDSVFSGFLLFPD

For IALILEPICCQERAA-dPEG24 (cysteine pairing not given here) [PA-dPEG24], the Hemolysis in presence of PA-dPEG24 (Abs 412 nm), type-O donor #1 plasma with B+ erythrocytes (0.747 without peptide) is 0.008 Abs 412 nm and the inhibition of hemolysis, type-O plasma with type-B erythrocytes, dose response (FIG. 8) was greater than 95%.
